This is an account of results in the DeepSol protein solubility set.

This series in a line: soluble on expression in E. coli; label from the status in PepcDB or PDB records.
As to “VVTRIVILGGGPAGYEAALVAATSHPETTQVTVIDCDGIGGAAVLDDCVPSKTFIASTGLRTELRRAPHLGFHIDFDDAKISLPQIHARVKTLAAAQSADITAQLLSMGVQVIAGRGELIDSTPGLARHRIKATAADGSTSEHEADVVLVATGASPRILPSAQPDGERILTWRQLYDLDALPDHLIVVGSGVTGAEFVDAYTELGVPVTVVASQDHVLPYEDADAALVLEESFAERGVRLFKNARAASVTRTGAGVLVTMTDGRTVEGSHALMTIGSVPNTSGLGLERVGIQLGRGNYLTVDRVSRTLATGIYAAGDCTGLLPLASVAAMQGRIAMYHALGEGVSPIRLRTVAATVFTRPEIAAVGVPQSVIDAGSVAARTIMLPLRTNARAKMSEMRHGFVKIFCRRSTGVVIGGVVVAPIASELILPIAVAVQNRITVNELAQTLAVYPSLSGSITEAARRLMAHDDLDCTAAQDAAEQLALVPHHLPTSN”, the “soluble on expression in E. coli” value was “soluble”.
The entry for “WNIHGKESCDVQLYIKRQSEHSILAGDPFELECPVKYCANRPHVTWCKLNGTTCVKLEDRQTSWKEEKNISFFILHFEPVLPNDNGSYRCSANFQSNLIESHSTTLYVTDVKHHHHHHHH” is “soluble”; for “WRKDIVLPKDQAKGVRPYNPKFKDSEYFSRYNALINDERLIEFAKKNNYKITFFPHPDIQQQIVDFEKHDYVEFADYNSSYQMLFNSSNIMITDFSSVAFDFAYEKKPVIYYQYEKSYHFKLDYYDYKKMGFGDVLENHNSLVDKVIYYMKNNSRMEDKYRKRVDNFFAYTDKNNRNRIYNAILE” it is “not soluble”.
Consider “YFQSMEAEDFECSSHCSELSWRQNEQRRQGLFCDITLCFGGAGGREFRAHRSVLAAATEYFTPLLSGQFSESRSGRVEMRKWSSEPGPEPDTVEAVIEYMYTGRIRVSTGSVHEVLELADRFLLIRLKEFCGEFLKKKLHLSNCVAIHSLAHMYTLSQLALKAADMIRRNFHKVIQDEEFYTLPFHLIRDWLSDLEITVDSEEVLFETVLKWVQRNAEERERYFEELFKLLRLSQMKPTYLTRHVKPERLVANNEVCVKLVADAVERHALRAENIQSGT”, for which the “soluble on expression in E. coli” value is “soluble”.
With “YGAWAAQELQAKLAEIGAPIQGNREELVERLQSYTRQTGIVLNRP”, the “soluble on expression in E. coli” value is on record as “soluble”.
As for “YLASDGKTIIMVGRNNLQNEELTFKIAKKGELWFHAKDIPGSHVVIKDNLNPTDEVKTDAAELAAYYSKARLSNLVQVDMIDVKKLNK”, the “soluble on expression in E. coli” value is “not soluble”.
The entry for “YLGGDLKYYGHTIKKANVQAIINYAVQYNILPSGIITQLYLESFWGDSTVGKRDNNWAGMSGGAQTRPSGVKVTTGMARPANEGGTYMHYASVDDFLKDYTYLLAKQGIYNVVGKKNIADYTKGLFRAGGAKYDYAAAGY” is “not soluble”; for “YLLGHSLGELTCLSVNSLFSLKDLFDIANFRNKLMVTSTEKYLVAHNINRSNKFEMWALSSPRATDLPQEVQKLLNSPNLLSSSQNTISVANANSVKQCVVTGLVDDLESLRTELNLRFPRLRITELTNPYNIPFHNSTVLRPVQEPLYDYIWDILKKNGTHTLMELNHPIIANLDGNISYYIHHALDRFVKCSSRTVQFTMCYDTINSGTPVEIDKSICFGPGNVIYNLIRRNCPQVDTIEYTS” it is “soluble”.
For “YNIYNNPKEANNRKDTVLYLMHKHNRINDKQYADAKKIDLKANLVERTKKERQVTGNEKNPEYDSYVNFVQSELMNNKYFKDKNLGSVLQSG”, the “soluble on expression in E. coli” value is reported as “not soluble”.
To “YPFWAQQTYPETPREPTGRIVCANCHLAAKPTEVEVPQSVLPDTVFKAVVKIPYDTSVQQVGADGSKVGLNVGAVLMLPEGFKIAPEDRIPEELKEEIGDVYFQPYGEDKDNIVIVGPLPGEQYQEIVFPVLSPNPANDKNIHFGKYSVHVGGNRGRGQVYPTGEKSNNNLYSAAATGTISKIAKQEGEDGSVKYLVDIKTESGEVVSDTIPAGPELIVSEGQAVTAGDALTNNPNVGGFGQLDAEIVLQDANR” belongs “soluble”; to “YTDRKNRIVEVDIASKAKRTVMQNPEGEFYEVNYSPDSQWITYTKSGANNMSVIYVYHLTSGKEYPVTE”, “not soluble”; to “YTIEELVKQADQQFNGNIAELMIATEVEMSGRNREDIIKIMSRNLQVMKAAVTEGLTSTKSISGLTGGDAVKMDNYIKKGNSLSDTTILNAVRNAIAVNELNAKMGLVCATPTAGSAGCLPAVLATAIEKLDLSEKEQLEFLFTAGAFGLVIGNNASISGAEGGCQAE”, “not soluble”.
Take “YTRRSIEKMVKTQVDSKVLDEKNKYYEQQLVTMKQTLESQRTVRHDLKNKLSPLIYLAESGKTDELVEQVQELGSLSVLGKIYADSGNITIDYIINLKLQALANKGVTIFCEINVPNDIDVVPFDLSTVLGNLIDNAAEALEYVQNEKWIGIKISYQVGFLMIQVANSFDGIVHLDNKKIISRKEDTENHGIGLTSIKKIAGKYDGEVVVQHDDKQFDVIVKLLA”: the “soluble on expression in E. coli” value is “not soluble”.
To “YYTDPSLIRQMWDKLERDGFTGGKILDPSMGTGNFFAAMPKHLREKSELYGVELDTITGAIAKHLHPNSHIEIKGFETVAFNDNSFDLVISNVPFANIRIADNRYDRPYMIHDYFVKKSLDLLHDGGQVAIISSTGTMDKRTENILQDIRETTEFLGGVRLPDSAFKAIAGTSVTTDMLFFQKHLDKGYVA” belongs “not soluble”.
